In patent US20210275641A1 (SYNTHEKINE, published 2021):
Numbering of substitutions follows the chain as printed. Numbers in names are those of the source.

T1: IL-2 receptor of the human CD4 positive T cell clone 3F8 (expresses CD25 and CD122) (human, UniProt P01589 22-272; P14784 27-551)
T1 sequence 1: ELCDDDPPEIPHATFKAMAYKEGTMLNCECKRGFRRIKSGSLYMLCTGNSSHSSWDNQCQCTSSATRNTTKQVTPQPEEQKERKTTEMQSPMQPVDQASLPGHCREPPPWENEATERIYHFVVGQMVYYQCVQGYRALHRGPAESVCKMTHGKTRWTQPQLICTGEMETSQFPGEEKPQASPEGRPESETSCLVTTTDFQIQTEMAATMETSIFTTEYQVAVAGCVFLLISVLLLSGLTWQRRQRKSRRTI
T1 sequence 2: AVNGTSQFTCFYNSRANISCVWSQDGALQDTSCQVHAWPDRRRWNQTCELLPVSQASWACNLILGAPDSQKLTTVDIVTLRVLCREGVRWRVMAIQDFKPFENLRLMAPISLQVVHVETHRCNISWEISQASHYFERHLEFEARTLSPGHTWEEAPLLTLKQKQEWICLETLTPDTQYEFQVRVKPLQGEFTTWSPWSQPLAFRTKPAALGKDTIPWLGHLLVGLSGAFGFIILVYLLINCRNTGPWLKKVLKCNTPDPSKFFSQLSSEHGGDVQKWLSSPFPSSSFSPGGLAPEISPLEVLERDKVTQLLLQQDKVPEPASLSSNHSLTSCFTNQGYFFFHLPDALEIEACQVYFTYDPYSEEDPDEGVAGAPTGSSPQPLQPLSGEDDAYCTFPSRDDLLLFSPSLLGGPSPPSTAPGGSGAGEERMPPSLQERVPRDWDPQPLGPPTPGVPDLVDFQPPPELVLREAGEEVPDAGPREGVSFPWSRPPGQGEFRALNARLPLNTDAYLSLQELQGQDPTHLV

T2: human high affinity trimeric IL-2 receptor (CD25/CD122/CD132) (human, UniProt P01589 22-272; P14784 27-551; P31785 23-369)
T2 sequence 1: T1 sequence 1
T2 sequence 2: T1 sequence 2
T2 sequence 3: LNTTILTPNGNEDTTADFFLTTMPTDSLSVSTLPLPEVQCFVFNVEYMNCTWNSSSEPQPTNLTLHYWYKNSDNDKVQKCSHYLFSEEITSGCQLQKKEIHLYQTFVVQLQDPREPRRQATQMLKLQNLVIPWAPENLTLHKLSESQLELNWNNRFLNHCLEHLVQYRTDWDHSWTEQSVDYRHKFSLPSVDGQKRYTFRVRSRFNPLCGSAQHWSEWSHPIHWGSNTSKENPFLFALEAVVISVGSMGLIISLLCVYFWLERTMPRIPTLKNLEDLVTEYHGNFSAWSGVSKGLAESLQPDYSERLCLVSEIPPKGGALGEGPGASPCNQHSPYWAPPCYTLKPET

B1: hIL2 mutein REV (L18R, Q22E, Q126V) (ligand)
chain: APTSSSTKKTQLQLEHLRLDLEMILNGINNYKNPKLTRMLTFKFYMPKKATELKHLQCLEEELKPLEEVLNLAQSKNFHLRPRDLISNINVIVLELKGSETTFMCEYADETATIVEFLNRWITFCVSIISTLT
B2: hIL2 mutein REL (L18R, Q22E, Q126L) (ligand)
chain: B1 chain with V126L
B3: hIL2 mutein REF (L18R, Q22E, Q126F) (ligand)
chain: B1 chain with V126F
B4: hIL2 mutein REN (L18R, Q22E, Q126N) (ligand)
chain: B1 chain with V126N
B5: hIL2 mutein RER (L18R, Q22E, Q126R) (ligand)
chain: B1 chain with V126R
B6: hIL2 mutein REY (L18R, Q22E, Q126Y) (ligand)
chain: B1 chain with V126Y
B7: hIL2 mutein AEK (L18A, Q22E, Q126K) (ligand)
chain: B1 chain with R18A, V126K
B8: hIL2 mutein EEK (L18E, Q22E, Q126K) (ligand)
chain: B1 chain with R18E, V126K
B9: hIL2 mutein VEK (L18V, Q22E, Q126K) (ligand)
chain: B1 chain with R18V, V126K
B10: hIL2 mutein HEK (L18H, Q22E, Q126K) (ligand)
chain: B1 chain with R18H, V126K
B11: hIL2 mutein IEK (L18I, Q22E, Q126K) (ligand)
chain: B1 chain with R18I, V126K
B12: hIL2 mutein REK (L18R, Q22E, Q126K) (ligand)
chain: B1 chain with V126K
B13: hIL2 mutein RTK (L18R, Q22T, Q126K) (ligand)
chain: B1 chain with E22T, V126K
B14: hIL2 mutein REE (L18R, Q22E, Q126E) (ligand)
chain: B1 chain with V126E
B15: hIL2 mutein REM (L18R, Q22E, Q126M) (ligand)
chain: B1 chain with V126M
B16: RYH (ligand)
cytokine: B1 chain with E22Y, V126H
B17: RHH (ligand)
cytokine: B1 chain with E22H, V126H
B18: RRH (ligand)
cytokine: B1 chain with E22R, V126H
B19: RNH (ligand)
cytokine: B1 chain with E22N, V126H
B20: RDH (ligand)
cytokine: B1 chain with E22D, V126H
B21: RTH (ligand)
cytokine: B1 chain with E22T, V126H
B22: GEH (ligand)
cytokine: B1 chain with R18G, V126H
B23: AEH (ligand)
cytokine: B1 chain with R18A, V126H
B24: MEH (ligand)
cytokine: B1 chain with R18M, V126H

The binders below were run against T1, IL-2 receptor of the human CD4 positive … (assay: cell-based or functional assay).

| Binder | IFNγ Production IC50 (pM), 3F8 cells [pM] | Proliferation IC50 (pM), 3F8 cells [pM] |
| --- | --- | --- |
| B1 | 21.2 | 20.8 |
| B2 | 33.8 | 68.4 |
| B3 | 38.3 | 37.6 |
| B4 | 15.7 | 13.7 |
| B5 | 13.1 | 13.1 |
| B6 | 22.1 | 19.3 |
| B7 | 19 | 13.7 |
| B8 | 58.7 | 36 |
| B9 | 4.6 | 15.5 |
| B10 | 30.4 | 20.9 |
| B11 | 8.8 | 10 |
| B12 | 17.7 | 14.2 |
| B13 |  | 62.8 |
| B14 | 18.4 | 33 |
| B15 | 12.7 | 32.6 |

Each binder was assayed against T2, human high affinity trimeric IL-2 … (assay: cell-based or functional assay).

| Binder | pSTAT5 ratio YT CD25/YT, dilution factor 2, upper table | pSTAT5 ratio YT CD25/YT, dilution factor 4, upper table | pSTAT5 ratio YT CD25/YT, dilution factor 8, upper table | pSTAT5 ratio YT CD25/YT, dilution factor 16, upper table | pSTAT5 ratio YT CD25/YT, dilution factor 32, upper table | pSTAT5 ratio YT CD25/YT, dilution factor 64, upper table | pSTAT5 ratio YT CD25/YT, dilution factor 128, upper table | pSTAT5 ratio YT CD25/YT, dilution factor 2, lower table | pSTAT5 ratio YT CD25/YT, dilution factor 4, lower table | pSTAT5 ratio YT CD25/YT, dilution factor 8, lower table |
| --- | --- | --- | --- | --- | --- | --- | --- | --- | --- | --- |
| B12 | 1.1 | 1.6 | 2.6 | 4.8 | 7.7 | 11.8 | 13.1 |  |  |  |
| B14 | 1.4 | 2.9 | 5.9 | 10.1 | 13.5 | 15.3 | 16.8 |  |  |  |
| B16 |  |  |  |  |  |  |  | 0.9 | 2.2 | 3.4 |
| B17 |  |  |  |  |  |  |  | 2 | 2 | 2.7 |
| B18 |  |  |  |  |  |  |  | 2.3 | 2.8 | 3.8 |
| B19 |  |  |  |  |  |  |  | 2.1 | 2 | 2.6 |
| B20 |  |  |  |  |  |  |  | 1.7 | 1.8 | 2.1 |
| B21 |  |  |  |  |  |  |  | 2.3 | 1.9 | 2.6 |
| B22 | 1.5 | 3.5 | 7.2 | 13.2 | 16.2 | 17.5 | 18.8 |  |  |  |
| B23 | 1.3 | 2.6 | 5.7 | 9.7 | 14.1 | 16.6 | 17.9 |  |  |  |
| B24 | 0.9 | 1.2 | 1.2 | 1.4 | 1.8 | 2.7 | 4.5 |  |  |  |

Same assay, conditions: not given

| Binder | pSTAT5 ratio YT CD25/YT, dilution factor 16, lower table | pSTAT5 ratio YT CD25/YT, dilution factor 32, lower table | pSTAT5 ratio YT CD25/YT, dilution factor 64, lower table | pSTAT5 ratio YT CD25/YT, dilution factor 128, lower table |
| --- | --- | --- | --- | --- |
| B16 | 5.5 | 8.7 | 11.8 | 10.5 |
| B17 | 3.9 | 6.3 | 10.6 | 16 |
| B18 | 6.5 | 10.3 | 14.6 | 19 |
| B19 | 3.6 | 5.2 | 7.7 | 13 |
| B20 | 2.2 | 2.9 | 4.4 | 7 |
| B21 | 3.6 | 5.4 | 9.1 | 14.3 |
